# Measurements taken from the supplement of paper PMC10567573.
# ± gives the standard deviation.
# Experiment: protein stability index of a GFP-peptide fusion (GPS, HEK-293T) (PSI 1-6); higher = more stable
# Conditions: c terminus: a fixed tail appended
# 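Further: 24-mer peptide tiles fused after GFP, lentivirally expressed, FACS-sorted into six equal bins by GFP/DsRed ratio, decoded by Illumina sequencing, PSI is the read-weighted mean bin number.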
Sequence,protein stability index (treatment: DMSO),"protein stability index (treatment: MLN4924 1 uM, 8 h)"
AAANCHFHCIETLVTTGANVNETD [ANKRD44],3.99 ± 0.22,4.08 ± 0.15
AAANKLFHYIPGTDILDLENQREN [PLEKHN1],4.13 ± 0.3,3.92 ± 0.43
AACLYLVCRTEGTPHMLLDLSDLL [BRF1],3.31 ± 0.47,2.85 ± 0.43
AAKQLEYQQLEDDKLSQKSSSSKL [EPB41L3],5 ± 0.64,4.92 ± 0.33
AALLQLVRRLQALRLEREEYVLLK [ESRRA],2.19 ± 0.37,1.95 ± 0.18
AANLPALVLKIMSGTFAPISDRYS [NEK8],3.08 ± 0.27,2.9 ± 0.56
AARAVRANDINYQDQIPRTLEEFV [FEM1B],3.96 ± 0.21,3.77 ± 0.32
AASSAKMGLVETKLAIIPGGGGTQ [AUH],3.83 ± 0.66,4.61 ± 0.51
AATDITGFGILGHSQNLAKQQRNE [SEPHS2],4.68 ± 0.38,4.57 ± 0.31
AAVESVLHLGLPWRMLRPQLVNSS [PPEF2],2.74 ± 0.81,2.46 ± 0.41
ACDIRVAASSAKMGLVETKLAIIP [AUH],2.95 ± 0.22,3.03 ± 0.32
ACGGTRDQLFMQEKARQLLGRLKP [MYBL2],3.39 ± 0.54,3.29 ± 0.38
ACGVILYILLVGYPPFWDEDQHKL [CAMK2B],3.05 ± 0.85,2.93 ± 0.38
ADDESETPEELEEEIPVVICAAAG [GLT8D2],5.582 ± 0.029,5.5 ± 0.35
ADVTLDPETAHPNLVLSEDRKSVK [TRIM39],5.38 ± 0.16,5.37 ± 0.43
AEAGHVDICHMLVQFCRLGSPRSR [EHMT1],2.3 ± 0.17,2.37 ± 0.34
AEDDHMLIQNEYRNGGSLADAISE [WEE1],5.06 ± 0.27,4.9 ± 0.43
AEEPNAAVPDEIPPLEGDEDASRM [HSP90AB1],5.74 ± 0.15,5.65 ± 0.15
AEEYEDSSTKPPKSRRKAALSSPR [INTS3],5.23 ± 0.12,5.27 ± 0.27
AEISARTMQSMFAKNFHVKAVMKT [PTPRD],2.56 ± 0.32,2.67 ± 0.39
AELFSYVLQDRAAKGSLGTQIGFA [FEM1A],2.16 ± 0.21,2.11 ± 0.23
AELLIFSVPIVYEKYKTQIDHYVG [RTN3],2.65 ± 0.77,2.61 ± 0.56

Sequence,protein stability index (treatment: DMSO),"protein stability index (treatment: MLN4924 1 uM, 8 h)"
AEYYRLHLEGYHGTAGDSMSYHSG [TNXB],3.09 ± 0.83,2.96 ± 0.43
AFLKLAKQRSVCTWGKNKPGIGAV [FAN1],2.76 ± 0.4,2.3 ± 0.48
AGGYVDVVKVLLESGASIEDHNEN [ANKRD17],3.08 ± 0.24,3.12 ± 0.36
AGHRRPAGGIRESKESSKEKKLTV [C22orf31],5.05 ± 0.41,4.86 ± 0.38
AHQQKKHSGFEDELSEVLENQSSQ [CHGA],5.28 ± 0.26,5.25 ± 0.34
AIAWCLRNEGVSSVLLGASNADQL [KCNAB2],2.23 ± 0.27,2.1 ± 0.13
AIIGWLLTTCTSNVAASNAKLALF [INTS3],3.13 ± 0.21,3 ± 0.45
AINRDTAFPGASHESSGNPPLRVI [RHOBTB3],3.44 ± 0.049,3.47 ± 0.29
AIRRFQSMPVRLLGHSPVLRNITN [CDC25B],2.42 ± 0.35,2.24 ± 0.22
AKKFMWRDSFMRHRGHCERRHRLG [ZBTB22],2.94 ± 0.23,3.1 ± 0.41
AKVTGEVLDILTRLPESVERLTGV [FLOT1],2.98 ± 0.37,3.17 ± 0.34
ALAEGYRYPELDTPKLDCFLSGME [TBX6],3.2 ± 0.48,3.5 ± 0.19
ALDEIKLLKCVRESDPSDPNKDMV [SRPK2],4.75 ± 0.23,4.54 ± 0.26
ALDYLQNQRIIHRDMKPDNILLDE [STK32A],3.14 ± 0.17,3.47 ± 0.45
ALHSLTQAGDYSMRVDLRAGDEAV [TNXB],3.39 ± 0.57,3.6 ± 0.49
ALKKRSGKKDKHSQSPRAAGPREG [PBXIP1],4.64 ± 0.14,4.83 ± 0.34
ALKKSADWVSDWSSRPENIPPKEF [BNIP3L],3.55 ± 0.23,3.77 ± 0.18
ALNWTDIPVAMEHQPPYIIAVLPR [VPS39],2.23 ± 0.38,2.25 ± 0.29
ALRQSVEADINGLRRVLDELTLSK [KRT13],3.08 ± 0.2,3.09 ± 0.26
ALSGKYSREFFNRRGELRHITKLK [SRPK2],2.87 ± 0.15,3.28 ± 0.27
ALVDGQIFCLHGGLSPSIDTLDHI [PPP2CA],1.9 ± 0.19,2.19 ± 0.38
ALVETSYVKVLHHMVKISGGPHIS [MAGEA3],2.8 ± 0.52,2.82 ± 0.78

Sequence,protein stability index (treatment: DMSO),"protein stability index (treatment: MLN4924 1 uM, 8 h)"
AMCVGCGSQIHDQFILRVSPDLEW [ISL2],2.18 ± 0.36,2.16 ± 0.21
AMYISQEEWGHQDPSKRALSRDTV [ZNF263],3.81 ± 0.12,4.06 ± 0.14
ANLPVPTIAAIDGLALGGGLELAL [AUH],2.35 ± 0.37,2.02 ± 0.55
APFLSQADDPDDGPVPGTPGLPGS [SPNS1],5.55 ± 0.34,5.43 ± 0.21
APLRKLSVDLIKTYKHINEVYYAK [DYRK1B],2.84 ± 0.15,2.96 ± 0.25
APSNSTSLNSTFGSTNLTGLFFPP [NFE2L1],3.32 ± 0.26,3.08 ± 0.29
AQQDLAPDPDAWLRALGELLRRDL [FANCE],3.11 ± 0.4,3.15 ± 0.3
ARIYIRRTLRNFINDEMQAKGIPQ [PCMTD1],2.01 ± 0.33,2.15 ± 0.18
ARLNGSVASYILASHNGISYKDLD [TENT5D],2.85 ± 0.47,2.68 ± 0.21
ARPSSASIRDANLYVSGLPKTMSQ [ELAVL3],4.08 ± 0.61,3.81 ± 0.098
ARRQHLKSVMLQIAATELEKEESR [TNNI2],4.31 ± 0.23,4.36 ± 0.33
ASDPLLSSVSPAVSKASSRRSSFS [TFE3],4.69 ± 0.15,4.79 ± 0.25
ASLKSEAESLKGKLEEERAKLHDV [GNB5],5.32 ± 0.11,5.26 ± 0.32
ATEPATCFPSTQKPTEPSVPVQPL [FBF1],4.9 ± 0.099,4.96 ± 0.1
ATLPGIFMLLLIFFAFLHCWLNAF [SOAT2],2.46 ± 0.5,2.3 ± 0.36
AVAGPPAAAEVGGGVGGSSRARSA [ANKRD17],5.36 ± 0.22,5.14 ± 0.33
AVIDSEKDMNFLKRYAGREEHWVG [CD69],2.72 ± 0.39,3.08 ± 0.29
AVQRLEGALWGLQAQAVQTEQAVA [SCARA5],2.89 ± 0.19,3.01 ± 0.34
AVVKPGNTKEKIAFFASHQCSNRI [FBXO34],3.81 ± 0.24,3.83 ± 0.35
AWFGFAGTPGYLSPEVLRKDPYGK [CAMK2A],2.46 ± 0.2,2.88 ± 0.34
AWKDDFALNSMLRRRFREKKKAIQ [YJU2B],3.27 ± 0.36,3.37 ± 0.13
